± gives the standard deviation of the averaged measurements.
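Note: ATP exposure 15 min at 22 °C before imaging.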

This data set concerns ATP. Nature of the data set: switch fluorescence ratio, 500 uM ATP over buffer (Cy3 cluster intensity, sum of 5 cycles each) (fold (ratio)); higher = stronger signal-on switching upon ATP binding; sequences stand for … in TCGTCGGCAGCGTCAGATGTGTATAAGAGACAGTTTTTTTTTTTTTTTTTTTTTTTTT…TC. As to conditions: aptamer strand: ATP DNA aptamer (quencher-CACCTGGGGGAGTATTGCGGAGGAAGG + anchor), 100 nM annealed; ATP concentration: 500 uM. Summed up:
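Cy3-labelled switching-strand clusters on a modified Illumina MiSeq flow-cell were annealed to 100 nM quencher-labelled ATP aptamer, imaged in selection buffer, then imaged after 15 min with 500 uM ATP at 22 °C. Five buffer/ATP cycles ran, with NaOH stripping and re-annealing between them. The fluorescence ratio is summed target-cycle over summed buffer-cycle Cy3 intensity per cluster, averaged per switch-domain sequence. Clusters outside 100-1000 RFU were excluded.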
On to GACAGGTGAG, for which the switch fluorescence ratio amounted to 1.15 ± 0.058.

Consider TGGGCCGCGC, for which the switch fluorescence ratio was found to be 1.04 ± 0.046.

As for GCCCTGAGCG, the switch fluorescence ratio came to 1.011 ± 0.0066.

As to ATCGGCATGC, the switch fluorescence ratio came to 1.19 ± 0.019.

TAACGGAGGG: the switch fluorescence ratio was 0.993 ± 0.04.

Turning to AAAAGTATAC, the switch fluorescence ratio is 1.06 ± 0.072.

As for GCGAAAGGT, the switch fluorescence ratio amounted to 0.9846 ± 0.0017.

As for ATGTTATTGG, the switch fluorescence ratio was 0.967 ± 0.033.

As to TCGTTGAATG, the switch fluorescence ratio was found to be 0.956 ± 0.014.

Consider TATCGCGAAT, for which the switch fluorescence ratio stood at 1.01 ± 0.021.

Take ATTTGTTAAG: the switch fluorescence ratio came to 1 ± 0.016.

Consider TACGGTTGGC, for which the switch fluorescence ratio was found to be 0.989 ± 0.023.

Take TCTCATCGGG: the switch fluorescence ratio is 1.014 ± 0.0037.

With TCTGGTATGG, the switch fluorescence ratio came to 0.994 ± 0.0034.

In the case of TGGGTTGTCG, the switch fluorescence ratio was 1.02 ± 0.016.

Consider GGGCTGTGGG, for which the switch fluorescence ratio worked out at 1.01 ± 0.022.

Regarding ATCTTATCGT, the switch fluorescence ratio worked out at 0.982 ± 0.027.

With AGTGCCCGTA, the switch fluorescence ratio came to 1.02 ± 0.063.

As to TTTGGGGGAG, the switch fluorescence ratio turned out to be 1.01 ± 0.027.

CTCGTTTTTG: the switch fluorescence ratio amounted to 0.972 ± 0.012.

In the case of GGGGGTCTGG, the switch fluorescence ratio came out at 0.9855 ± 0.0097.

ATTAACTTTG: the switch fluorescence ratio was 1.01 ± 0.05.

Consider ATTGACGGGT, for which the switch fluorescence ratio was 0.9762 ± 0.0085.

As for GAGGGAGGTG, the switch fluorescence ratio was determined as 1.02 ± 0.018.

GGCTAGAGCT: the switch fluorescence ratio came out at 0.982 ± 0.032.

For CGTTCGGGGT, the switch fluorescence ratio was 0.981 ± 0.012.

ATATGGGTTA: the switch fluorescence ratio turned out to be 0.9912 ± 0.001.

Consider TTGGGTTGCG, for which the switch fluorescence ratio was determined as 0.964 ± 0.035.

Take ACGGAGGCAT: the switch fluorescence ratio turned out to be 1.31 ± 0.024.

Regarding GCCTGAGATG, the switch fluorescence ratio was 1.03 ± 0.017.

Regarding GGGGGGTTTG, the switch fluorescence ratio came out at 1 ± 0.037.

Consider CGGTGGAGGG, for which the switch fluorescence ratio was 0.9849 ± 0.0091.

Consider GGTCTAGATT, for which the switch fluorescence ratio came to 0.988 ± 0.013.

Regarding ATCGGCAGTT, the switch fluorescence ratio came to 1 ± 0.015.

Take GTACCTGTCT: the switch fluorescence ratio amounted to 0.99 ± 0.017.

Regarding AAAGGGATAT, the switch fluorescence ratio is 0.975 ± 0.049.

For the sequence TTGGGTTGGA, the switch fluorescence ratio came to 0.996 ± 0.017.

In the case of ACAAGAGGTT, the switch fluorescence ratio stood at 0.995 ± 0.018.

For the sequence GAAGTGAGCG, the switch fluorescence ratio came out at 1.028 ± 0.0063.

Regarding GCGTTTCGGA, the switch fluorescence ratio was 1 ± 0.02.

Turning to CTGGGTGGGC, the switch fluorescence ratio worked out at 0.993 ± 0.018.

For the sequence GGGCAAGCGA, the switch fluorescence ratio amounted to 1.08 ± 0.043.

Take GCGGGGGAG: the switch fluorescence ratio was 1.01 ± 0.059.

On to TTGCGCCGC, for which the switch fluorescence ratio came to 1.138 ± 0.0037.

For the sequence GAGGTTGTG, the switch fluorescence ratio amounted to 1.01 ± 0.025.

In the case of CACGGCGACA, the switch fluorescence ratio was 1.15 ± 0.027.

As to GGTTGGAGTG, the switch fluorescence ratio amounted to 0.963 ± 0.017.

As to AATCACGGTG, the switch fluorescence ratio is 1.05 ± 0.052.

For the sequence TTAATAAACT, the switch fluorescence ratio was 1.03 ± 0.051.

As for TCGGGGCGGA, the switch fluorescence ratio was determined as 0.994 ± 0.038.

For GGGGGCCTAG, the switch fluorescence ratio was 0.981 ± 0.035.

Consider GTTATAGTAT, for which the switch fluorescence ratio was 0.963 ± 0.054.

With AACGTCTGGA, the switch fluorescence ratio amounted to 0.9725 ± 0.0037.

On to GGGGTGATCA, for which the switch fluorescence ratio is 1.05 ± 0.064.

Regarding GAGTCGGATG, the switch fluorescence ratio was determined as 0.967 ± 0.012.

Consider GATACGAAGT, for which the switch fluorescence ratio was 0.981 ± 0.028.

Take CCGAATACCA: the switch fluorescence ratio amounted to 1.61 ± 0.13.

Turning to TTTCTTGCTG, the switch fluorescence ratio came to 1.07 ± 0.047.

For GCGCGCGACT, the switch fluorescence ratio is 1.002 ± 0.0092.

For TACGAAGTAG, the switch fluorescence ratio turned out to be 0.993 ± 0.042.

As to CGACAAAGCC, the switch fluorescence ratio is 1.28 ± 0.014.

On to TCCACTTATT, for which the switch fluorescence ratio amounted to 1.05 ± 0.093.

For GTTTTGACAC, the switch fluorescence ratio amounted to 1.02 ± 0.013.

As for CGTATCTGAC, the switch fluorescence ratio is 1.04 ± 0.014.

As to GTAAAAGTTT, the switch fluorescence ratio came to 0.979 ± 0.01.

With TATGGACATT, the switch fluorescence ratio is 1.03 ± 0.011.

Regarding TGTAGAGGGA, the switch fluorescence ratio is 1.005 ± 0.0046.

Consider AACATATTGG, for which the switch fluorescence ratio is 1.01 ± 0.073.

On to CTTAGGCCAG, for which the switch fluorescence ratio turned out to be 0.998 ± 0.032.

For the sequence ATGGATGGGG, the switch fluorescence ratio is 0.998 ± 0.028.

In the case of TACTTTGCGG, the switch fluorescence ratio is 1.01 ± 0.063.

Consider CTTAGTTAGC, for which the switch fluorescence ratio came out at 1.02 ± 0.013.

As for CGGTTTGGGG, the switch fluorescence ratio was found to be 0.991 ± 0.027.

In the case of ATGGTTTTGT, the switch fluorescence ratio came to 0.959 ± 0.022.

Consider TTTGAGGGTA, for which the switch fluorescence ratio was 1.03 ± 0.1.

For TGATAGGATT, the switch fluorescence ratio stood at 0.9764 ± 0.0021.

Take AGTATATCTT: the switch fluorescence ratio turned out to be 0.98 ± 0.012.

For TTTGCATACT, the switch fluorescence ratio is 2.75 ± 2.4.

The values are drawn from the supplement of paper PMC10126150.
